Test results reported in article PMC10352329 (Nature Communications, 2023).
Where no end group is shown, it is not given here.

T1: human p300BRP (residues 1048–1282), wild type (human, UniProt Q09472 1048-1282, fluorescently labeled with a His tag Labeling Kit (microscale thermophoresis only))
T1 sequence (looked up): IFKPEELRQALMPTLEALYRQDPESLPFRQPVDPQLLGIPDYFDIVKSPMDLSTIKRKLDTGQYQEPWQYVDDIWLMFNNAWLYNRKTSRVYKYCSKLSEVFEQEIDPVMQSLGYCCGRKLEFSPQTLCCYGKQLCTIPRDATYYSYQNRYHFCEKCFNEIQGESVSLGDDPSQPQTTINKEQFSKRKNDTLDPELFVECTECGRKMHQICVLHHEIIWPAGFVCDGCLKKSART


Assays:
Details in all cases: both partners purified
[1] = target: N-terminal bromodomain of human BRD4 (residues 44–168) (human, UniProt O60885 44-168); assay: ITC; 100 µM protein in the cell, 1 mM acetylated histone NT peptide in the syringe; 25 °C; 10 mM HEPES-NaOH pH 7.4, 150 mM NaCl; single binding site model
[2] = target: T1, human p300BRP (residues 1048–1282), …; assay: as above
[3] = target: T2, K12/K16-acetylated human histone H4 (as it stands in H4acNuc) (human, UniProt P62805 1-103, acetyl-lysine at K12 and K16); assay: cryo-EM structure; p300_(BRPHZT) or CBP_(BRPHZT), acetyl-CoA and nucleosome mixed 4:6:1 in 20 mM HEPES-NaOH pH 7.2, 150 mM NaCl, 1 μM ZnCl2, 1 mM TCEP; purified and cross-linked by GraFix (glutaraldehyde)
T2 construct: human histone H4 ORF with the codons of K12 and K16 replaced by TAG for acetyllysine; The H4 chain of m6; met p300/CBP only inside the nucleosome; also called H4K12ac/K16ac; H4NTac; source: cell-free synthesis (E. coli S30 extract, genetic code reprogramming), purified, assembled into H4acNuc

Row | Binder | binding result [3] | other results
1 | PAPKK(Ac)GSK(Ac)KAVTK [di-acetylated H2B peptide K12ac/K15ac] |  | Kd [1]: 430 ± 5 µM
2 | KAVTK(Ac)AQK(Ac)KDGK [di-acetylated H2B peptide K20ac/K23ac] |  | Kd [2]: 200 ± 30 µM
3 | human p300_(BRPHZT) (residues 1048–1836) (domain or fragment, autoacetylated form containing K1542ac, K1546ac, K1549ac, K1550ac, K1551ac, K1554ac, K1555ac, K1558ac and K1560ac) IFKPEELRQALMPTLEALYRQDPESLPFRQPVDPQLLGIPDYFDIVKSPMDLSTIKRKLDTGQYQEPWQYVDDIWLMFNNAWLYNRKTSRVYKYCSKLSEVFEQEIDPVMQSLGYCCGRKLEFSPQTLCCYGKQLCTIPRDATYYSYQNRYHFCEKCFNEIQGESVSLGDDPSQPQTTINKEQFSKRKNDTLDPELFVECTECGRKMHQICVLHHEIIWPAGFVCDGCLKKSARTRKENKFSAKRLPSTRLGTFLENRVNDFLRRQNHPESGEVTVRVVHASDKTVEVKPGMKARFVDSGEMAESFPYRTKALFAFEEIDGVDLCFFGMHVQEYGSDCPPPNQRRVYISYLDSVHFFRPKCLRTAVYHEILIGYLEYVKKLGYTTGHIWACPPSEGDDYIFHCHPPDQKIPKPKRLQEWYKKMLDKAVSERIVHDYKDIFKQATEDRLTSAKELPYFEGDFWPNVLEESIKELEQEEEERKREENTSNESTDVTKGDSKNAKKKNNKKTSKNKSSLSRGNKKKPGMPNVSNDLSQKLYATMEKHKEVFFVIRLIAGPAANSLPPIVDPDPLIPCDLMDGRDAFLTLARDKHLEFSSLRRAQWSTMCMLVELHTQSQDRFVYTCNECKHHVETRWHCTVCEDYDLCITCYNTKNHDHKMEKLGLGLDDESNNQQAAATQSPGDSRRLSIQRCIQSLVHACQCRNANCSLPSCQKMKRVVQHTKGCKRKTNGGCPICKQLIALCCYHAKHCQENKCPVPFCLNIKQKLRQQQLQHRLQQAQMLRRRMASMQ | binds | 
4 | human CBP_(BRPHZT) (residues 1084–1873) (domain or fragment) IFKPEELRQALMPTLEALYRQDPESLPFRQPVDPQLLGIPDYFDIVKNPMDLSTIKRKLDTGQYQEPWQYVDDVWLMFNNAWLYNRKTSRVYKFCSKLAEVFEQEIDPVMQSLGYCCGRKYEFSPQTLCCYGKQLCTIPRDAAYYSYQNRYHFCEKCFTEIQGENVTLGDDPSQPQTTISKDQFEKKKNDTLDPEPFVDCKECGRKMHQICVLHYDIIWPSGFVCDNCLKKTGRPRKENKFSAKRLQTTRLGNHLEDRVNKFLRRQNHPEAGEVFVRVVASSDKTVEVKPGMKSRFVDSGEMSESFPYRTKALFAFEEIDGVDVCFFGMHVQEYGSDCPPPNTRRVYISYLDSIHFFRPRCLRTAVYHEILIGYLEYVKKLGYVTGHIWACPPSEGDDYIFHCHPPDQKIPKPKRLQEWYKKMLDKAFAERIIHDYKDIFKQATEDRLTSAKELPYFEGDFWPNVLEESIKELEQEEEERKKEESTAASETTEGSQGDSKNAKKKNNKKTNKNKSSISRANKKKPSMPNVSNDLSQKLYATMEKHKEVFFVIHLHAGPVINTLPPIVDPDPLLSCDLMDGRDAFLTLARDKHWEFSSLRRSKWSTLCMLVELHTQGQDRFVYTCNECKHHVETRWHCTVCEDYDLCINCYNTKSHAHKMVKWGLGLDDEGSSQGEPQSKSPQESRRLSIQRCIQSLVHACQCRNANCSLPSCQKMKRVVQHTKGCKRKTNGGCPVCKQLIALCCYHAKHCQENKCPVPFCLNIKHKLRQQQIQHRLQQAQLMRRRMATMN | binds | 
